Experimental data taken from patent US20150216795A1 (SANOFI, priority 2012, published 2015).

Experiments:
[1] = test system: colorectal, pancreatic, and lung cancer populations; test: Three Phase 3 placebo-controlled clinical studies, GI perforation; format: in vivo, human; details: across three Phase 3 placebo-controlled studies
Description: Gastrointestinal (GI) perforation including fatal GI perforation can occur in patients receiving ZALTRAP. Across three Phase 3 placebo-controlled clinical studies (colorectal, pancreatic, and lung cancer populations), the incidence of GI perforation (all grades) was 0.8% for patients treated with ZALTRAP and 0.3% for patients treated with placebo. Grade 3-4 GI perforation events occurred in 0.8% of patients treated with ZALTRAP and 0.2% of patients treated with placebo.

[2] = test system: xenotransplanted colon tumors; test: Xenotransplanted colon tumor growth; format: in vivo; details: mice
Description: (§1) This inhibition can result in decreased neovascularization and decreased vascular permeability.

rabbits = test: Excisional and incisional skin wound healing models; format: in vivo, rabbit; details: for wound healing: repeated administration
[3] = test system: patients with metastatic colorectal cancer (MCRC)
Description: Each randomized patient was to be treated until disease progression, death, or unacceptable toxicity.
Treatment arms were evenly balanced for demographics, disease characteristics and prior anti-cancer treatments, including prior exposition to bevacizumab.
Patients received a median of 9 cycles of ZALTRAP/FOLFIRI or 8 cycles of placebo/FOLFIRI.

[4] = test system: sexually mature cynomolgus monkeys; test: 6-month repeat-dose toxicology study; format: in vivo, cynomolgus monkey
Protocol: Reversibility was observed within 18 weeks after cessation of treatment. Systemic exposure (AUC) with a 3 mg per kg per dose in monkeys was approximately 60% of the AUC in patients at the recommended dose.
Most ziv-aflibercept-related findings were noted from the lowest dose tested (3 mg per kg per dose) correlating to 60% of the AUC at the human recommended dose.

pregnant rabbits = test: Embryo-fetal toxicity study; format: in vivo, rabbit; details: every 3 days during organogenesis, intravenous, all doses tested
Description: Adverse embryo-fetal effects included increased incidences of postimplantation losses and external (including anasarca, umbilical hernia, diaphragmatic hernia and gastroschisis, cleft palate, ectrodactyly, and atresia), visceral (in the heart, great vessels, and arteries), and skeletal fetal malformations (including fused vertebrae, sternebrae, and ribs; supernumerary arches and ribs, and incomplete ossification). […] The incidence and severity of fetal anomalies increased with increasing dose.

[5] = test system: patients with various cancers; test: Immunogenicity, anti-product antibody (APA) across 15 studies; format: in vivo, human
Description: As with all therapeutic proteins, there is a potential for immunogenicity. In patients with various cancers across 15 studies, 1.4% (41/2862) of patients tested positive for anti-product antibody (APA) at baseline. […] Among patients who tested positive for APA and had sufficient samples for further testing, neutralizing antibodies were detected in 17 of 48 ziv-aflibercept-treated patients and in 2 of 40 patients receiving placebo.
Immunogenicity data are highly dependent on the sensitivity and specificity of the assay. Additionally, the observed incidence of antibody positivity in an assay may be influenced by several factors, including sample handling, timing of sample collection, concomitant medications, and underlying disease. For these reasons, comparison of the incidence of antibodies to ZALTRAP with the incidence of antibodies to other products may be misleading.

endothelial cells = test: Endothelial cell proliferation in animals; format: in vivo
Description: as §1

[6] = test system: previously treated patients with metastatic colorectal cancer; details: pre-treated patients with MCRC; cited from earlier work
[7] = test system: sexually immature cynomolgus monkeys; test: 3-month intravenous toxicology study; format: in vivo, cynomolgus monkey; details: after a post-dosing recovery period
[8] = test system: patients with solid tumors; test: Cardiac electrophysiology, QTc study; format: in vivo, human; details: 6 mg/kg intravenous every three weeks; 87 patients; large = greater than 20 ms
Protocol: The effect of 6 mg/kg intravenous ZALTRAP every three weeks on QTc interval was evaluated in 87 patients with solid tumors in a randomized, placebo-controlled study. […] However, a small increase in the mean QTc interval (i.e., less than 10 ms) cannot be excluded due to limitations of the study design.

[9] = Population pharmacokinetic analysis; format: in vivo, human
Description: There are no data available for patients with severe hepatic impairment.
There is no data available for patients with severe hepatic impairment (total bilirubin>3×ULN and any SGOT/AST).

[10] = test system: non-small cell lung cancer (NSCLC); details: added to docetaxel vs docetaxel plus placebo; cited from earlier work
[11] = test system: patients with metastatic colorectal cancer (MCRC); test: EFC10262 (VELOUR) randomized double-blind phase 3 study: efficacy (OS, PFS, response rate);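 also: Placebo-controlled comparison, both arms on FOLFIRI every 2 weeks until progression or intolerable toxicity, in patients progressing on or within 6 months after oxaliplatin-based combination chemotherapy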
Description: Each randomized patient was to be treated until disease progression, death, or unacceptable toxicity. […] The predefined statistical significance level for this final analysis was 0.0466 after adjusting the type I error spent for the two interim analyses using the O'Brien-Fleming spending function.
The study included one formal interim analysis, planned for the purpose of efficacy, when 561 death events (65% information time) had occurred. Upon request of the independent Data Monitoring Committee (DMC), an additional interim analysis of OS was performed to provide an early evaluation of the benefit-risk ratio, when 315 death events (36.5% information fraction) had occurred.
A total of approximately 863 deaths were required to detect 20% hazard rate reduction in OS with 90% power using the two-sided log rank test at an overall 0.0499 alpha level. The median survival times was expected to be 11 months for the control group. The overall alpha level was split between overall survival (0.0499) and progression-free survival as a secondary efficacy endpoint (0.0001).
Approximately 1200 patients (i.e. 600 patients per treatment group) were planned to be randomized. Treatment assignment was stratified according to prior therapy with bevacizumab (yes or no), and ECOG performance status (PS) (0 vs 1 vs 2).
The enrolment started in November 2007 and was completed in March 2010. A total of 1226 patients were randomized. […] Treatment arms were evenly balanced for demographics, disease characteristics and prior anti-cancer treatments, including prior exposition to bevacizumab.
Immediately after, patients received irinotecan, 5-FU and leucovorin (FOLFIRI regimen). This treatment was repeated every 2 weeks.
Study 1 was a randomized, double-blind, placebo-controlled study in patients with metastatic colorectal cancer (mCRC) who are resistant to or have progressed during or within 6 months of receiving oxaliplatin-based combination chemotherapy, with or without prior bevacizumab. A total of 1226 patients were randomized (1:1) to receive either ZALTRAP (N=612; 4 mg per kg as a 1 hour intravenous infusion on day 1) or placebo (N=614), in combination with 5-fluorouracil plus irinotecan [FOLFIRI: irinotecan 180 mg per m2 IV infusion over 90 minutes and leucovorin (dl racemic) 400 mg per m^2 intravenous infusion over 2 hours at the same time on day 1 using a Y-line, followed by 5-FU 400 mg per m^2 intravenous bolus, followed by 5-FU 2400 mg per m^2 continuous intravenous infusion over 46-hours]. The treatment cycles on both arms were repeated every 2 weeks. Patients were treated until disease progression or unacceptable toxicity. The primary efficacy endpoint was overall survival. Treatment assignment was stratified by the ECOG performance status (0 versus 1 versus 2) and according to prior therapy with bevacizumab (yes or no).

patients with cancer = test: Pooled safety across completed studies (RPLS, TMA); format: in vivo, human
Description: Severe proteinuria, nephrotic syndrome, and thrombotic microangiopathy (TMA) occurred more frequently in patients treated with ZALTRAP. In patients with mCRC, proteinuria was reported in 62% patients treated with ZALTRAP/FOLFIRI compared to 41% patients treated with placebo/FOLFIRI. Grade 3-4 proteinuria occurred in 8% of patients treated with ZALTRAP/FOLFIRI to 1% of patients treated with placebo/FOLFIRI [see Adverse Reactions (6.1)]. Nephrotic syndrome occurred in 2 patients (0.5%) treated with ZALTRAP/FOLFIRI compared to none of the patients treated with placebo/FOLFIRI. TMA was reported in 3 of 2258 patients with cancer enrolled across completed studies.
RPLS (also known as posterior reversible encephalopathy syndrome) was reported in 0.5% of 3795 patients treated with ZALTRAP monotherapy or in combination with chemotherapy.

[12] = Clinical pharmacokinetics, plasma free ziv-aflibercept by ELISA; format: in vivo, human
human VEGF-B = target: T1, human VEGF-B (Homo sapiens, UniProt P49765); test: Binding, equilibrium dissociation constant
T1 sequence (P49765 31-129 limits assumed): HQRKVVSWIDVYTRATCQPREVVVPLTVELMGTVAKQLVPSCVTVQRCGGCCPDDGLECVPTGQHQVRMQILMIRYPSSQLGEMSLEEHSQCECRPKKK
Description: as §1

human PIGF-2 = target: T2, human PIGF-2 (Homo sapiens, UniProt P49763); test: Binding, equilibrium dissociation constant
T2 sequence (P49763 19-170 isoform P49763-3 limits assumed): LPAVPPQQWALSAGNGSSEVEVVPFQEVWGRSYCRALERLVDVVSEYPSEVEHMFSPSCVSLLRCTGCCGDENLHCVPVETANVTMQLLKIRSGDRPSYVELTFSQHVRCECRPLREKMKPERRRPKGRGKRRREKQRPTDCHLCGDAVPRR
Description: as §1

[13] = includes death due to disease progression

In the case of “ziv-aflibercept: recombinant fusion protein of VEGF-binding portions of human VEGF Receptors 1 and 2 fused to the Fc portion of human IgG1 (SEQ ID NO:1)”, the “Grade 3-4 GI perforation events” value [1] is reported as 0.8%, the “incidence of GI perforation (all grades)” value [1] is reported as 0.8% and the “growth of xenotransplanted colon tumors” value [2] is reported as “inhibited the growth”. The “full-thickness excisional and incisional skin wound model findings” value (rabbits; rabbit, in vivo) was “reduced fibrous response, neovascularization, epidermal hyperplasia/re-epithelialization, and tensile strength”, the wound healing (rabbits) was “delay in wound healing” and the wound healing (rabbits; listed as ZALTRAP) was “impairs wound healing”. The “Grade 3 GI fistula formation” value ([3]; 2 patients) was 0.3%, the “Patients with any TEAE leading to death” value ([3]; Safety population N = 611) was 37 (6.1%) number (%) of patients and the “dose reduced and/or omitted” value ([3]; Study 1) was 17 % of patients. For the same substance, the “occurrence of grade 3-4 treatment emergent adverse events” value ([3]; in vivo) was 83.5%, the “premature treatment discontinuation due to adverse events” value ([3]; in vivo) was 19.5% and the “rate of permanent discontinuation of study treatment due to adverse events” value ([3]; in vivo) was 26.8%. For the same substance, the “patients with adverse events that led to death after 30 days of last dosing” value [3, 13] was 12, the “patients with adverse events that led to death within 30 days of last dosing” value [3, 13] was 28 and the “reproductive function and fertility” value ([4]; all doses tested including 3 mg per kg) was “impaired reproductive function and fertility”. For the same substance, the “reversibility of reproductive findings after cessation of treatment” value ([4]; monkeys) was at most 18 weeks, the repeat-dose toxicity findings ([4]; weekly/every two weeks intravenous for up to 6 months, from 3 mg per kg per dose) was “changes in the bone” and the embryo-fetal toxicity (pregnant rabbits) was “produced embryo-fetal toxicity”. For the same substance, the embryo-fetal toxicity (pregnant rabbits; listed as ZALTRAP) was “embryotoxic and teratogenic”, the neutralizing antibodies detected ([5]; among APA-positive patients with sufficient samples) was 17 of 48 and the “incidence of APA development” value ([5]; intravenous, 53/1687 patients) was 3.1%. For the same substance, the “mean free ziv-aflibercept trough concentrations in patients with positive neutralizing antibodies” value ([5]; versus the overall population) was “lower”, the “proliferation of endothelial cells” value (endothelial cells) was “inhibit the proliferation of endothelial cells” and the tolerability [6] was “well tolerated”. For the same substance, the “reversibility of skeletal and nasal cavity effects” value [7] was “not reversible”, the “change in the mean QT interval from baseline (Fridericia correction)” value [8] was “No large changes in the mean QT interval” and the “increase in systemic exposure in patients weighing >=100 kg” value ([9]; compared to patients weighing 50 to 100 kg) was 29%. The “pharmacokinetic drug-drug interactions with irinotecan/SN-38 or 5-FU” value ([9]; cross-study comparisons and population pharmacokinetic analyses) was “No clinically important pharmacokinetic drug-drug interactions”, the “exposure in patients with mild and moderate hepatic impairment vs normal hepatic function” value ([9]; data from 1507 patients) was “similar” and the “exposure in patients with mild, moderate, and severe renal impairment vs normal renal function” value ([9]; data from 1507 patients) was “similar”. For the same substance, the “effect of age, race, and gender on the exposure of free ziv-aflibercept” value ([9]; in vivo) was “did not have a clinically important effect”, the “primary endpoint of improvement in overall survival” value [10] was “did not meet the pre-specified criteria” and the “estimated probability of being alive” value ([11]; 12 months from randomization) was 56.1%. The “estimated probability of being alive” value ([11]; 18 months from randomization) was 38.5%, the “Median overall survival (95.34% CI)” value ([11]; ITT population, all patients, cutoff 7 FEB. 2011) was 13.50 months and the “Median PFS (99.99% CI)” value ([11]; ITT population, all patients, tumor assessment by the IRC, cutoff 6 MAY 2010) was 6.90 months. The “Overall Response: Responders (Complete response or Partial response), %” value ([11]; by IRC, evaluable patient population N = 531) was 19.8%, the “reduction of risk of death” value ([11]; compared to placebo, from hazard ratio) was 18.3% and the “PFS HR (99.99% CI)” value ([11]; liver metastasis only group) was 0.547. The “PFS HR (99.99% CI)” value ([11]; no liver metastasis, or other metastases group) was 0.839, the “RPLS (posterior reversible encephalopathy syndrome)” value (patients with cancer; 3795 patients, monotherapy or in combination with chemotherapy) was 0.5% and the “thrombotic microangiopathy (TMA)” value (patients with cancer; patients with cancer enrolled across completed studies) was 3 of 2258. For the same substance, the “dose linearity of free ziv-aflibercept concentrations” value ([12]; dose range of 2-9 mg/kg) was “linear pharmacokinetics”, the “Steady state concentrations of free ziv-aflibercept reached” value ([12]; human, in vivo) was “by the second dose” and the Kd (human VEGF-B) was 0.00192 nM. For the same substance, the Kd (human PIGF-2) was 0.039 nM.
